Test results taken from paper PMC4113483.

Target: Mu-HSSKLQ-AMC (morpholinocarbonyl-His-Ser-Ser-Lys-Leu-Gln-7-amido-4-methylcoumarin), fluorogenic PSA substrate
Assay: Spectrofluorimetric pre-steady-state (burst) and steady-state kinetics of AMC release (excitation 380 nm, emission 460 nm)
Settings: 37.0 C, 100 mM NaCl, 10 mM CaCl2, 25 mM bis-tris-HCl and 25 mM tris-HCl between pH 6.5 and 9.0 (the buffer used at each pH is not stated)

pKES1, group 1 of PSA (unassigned; tentatively Lys95E of the kallikrein loop) (pH 6.5-9.0): 8.59 pH units
pKES2, group 2 of PSA (unassigned; tentatively a histidine, possibly His57 or His172) (pH 6.5-9.0): 5.11 pH units
pKU1, group 1 of PSA (unassigned; tentatively Lys95E of the kallikrein loop) (pH 6.5-9.0): 8.02 pH units
pKU2, group 2 of PSA (unassigned; tentatively a histidine, possibly His57 or His172) (pH 6.5-9.0): 7.61 pH units
Ks (pH 6.5): 490 µM
Ks (pH 7.0): 120 µM
Ks (pH 7.5): 62 µM
Ks (pH 8.0): 42 µM
Ks (pH 8.5): 55 µM
Ks (pH 9.0): 75 µM
Substance: Prostate-specific antigen (PSA, kallikrein-related peptidase 3, KLK3)
